Data from patent US20240309360A1, “TRANS-ACTIVATORS AND METHODS AND USE THEREOF” (THE GOVERNING COUNCIL OF THE UNIVERSITY OF TORONTO, priority 2021, published 2024).

Experiments:
Type in all cases: cell-based, human
[1] = tested on: 7×TetO-EGFP reporter in HEK293T cells; assay: 117 effector domains with rTetR or dCas9 based recruitment systems; settings: rTetR fusion (1 μg/ml doxycycline 48 hours) or PYL1 with dCas9-ABI1
Experimental: A further 117 different combinations of activation domains or fragments of individual activation domains were assayed by fusing them either to PYL1 (to test with the dCas9-ABI1 system) or to rTetR, a transcription factor that binds DNA in the presence of doxycycline. All constructs were tested with the same TetO reporter construct.
Methods: 200 ng of plasmid expressing super activators fused to rTetR in their C terminus and 50 ng DsRed was transfected into HEK293T cells stably expressing 7×TetO-EGFP reporter. One day after transfection, cells were treated with 1 μg/ml doxycycline for 48 hours. After the treatment, cells were analyzed by flow cytometry for EGFP expression

[2] = tested on: EGFP reporter (TetO7) in HEK293T cells; assay: Multi-TAD effectors fused to PYL1 recruited to EGFP reporter; settings: PYL1 fusion, 1 μM abscisic acid, 24 or 48 hours
Experimental: Multiple TADs were fused together with PYL1 and tested for transcriptional activity using the PYL1-ABI EGFP reporter system described above. The following TAD fragments were used: CITED1-8 (SEQ ID NO: 47), CITED2-12 (SEQ ID NO: 49), C3orf62-12 (SEQ ID NO: 45), BRD8-25 (SEQ ID NO: 40), ZXDC-12 (SEQ ID NO: 97), KLF7-1 (SEQ ID NO: 72), ATXN7L3-1 (SEQ ID NO: 35), FAM90A1-20 (SEQ ID NO: 60), SPDYE4-3 (SEQ ID NO: 90), YAF2-7 (SEQ ID NO: 96).
Methods: Cells were seeded on 48-well plates. Next day, after cells were between 70-90% confluent, 250 ng of each construct was transfected in each well using (Thermo Fisher Scientific, 11668019) reagent. Each construct was either directly fused TagRFP either directly fused to each component or being co-expressed from the same plasmid was used as a measure of transfection. In each experiment, the same gate for RFP+ cells were used to control for the effect of each construct's expression levels on activity. EGFP reporter cells were expanded from a clonal line to control for level of ABI-dCas9 and gRNA targeting the TetO7 sites upstream of the promoter. For the CD133 induction experiment, a 293T cell line stably expressing ABI-dCas9 and a pool of 5 gRNAs targeting the promoter were used for all activators. CD133 antibody conjugated to APC (Miltenyi Biotec, 130-113-668) was used. […]

[3] = tested on: promoter of CD133 gene in HEK293T cells; assay: CD133 induction experiment; settings: PYL1 fusion, 1 μM abscisic acid, pool of 5 gRNAs
Experimental: Up to 2 additional TADs selected from p65 and HSF1 were combined with SPDYE4-CITED1 TADs in different orders and tested for the ability to activate transcription of the PYL1-ABI EGFP reporter system (FIG. 17, left panel) or the endogenous CD133 gene (FIG. 17, right panel).
Methods: Cells were seeded on 48-well plates. Next day, after cells were between 70-90% confluent, 250 ng of each construct was transfected in each well using (Thermo Fisher Scientific, 11668019) reagent. Each construct was either directly fused TagRFP either directly fused to each component or being co-expressed from the same plasmid was used as a measure of transfection. In each experiment, the same gate for RFP+ cells were used to control for the effect of each construct's expression levels on activity. EGFP reporter cells were expanded from a clonal line to control for level of ABI-dCas9 and gRNA targeting the TetO7 sites upstream of the promoter. For the CD133 induction experiment, a 293T cell line stably expressing ABI-dCas9 and a pool of 5 gRNAs targeting the promoter were used for all activators. CD133 antibody conjugated to APC (Miltenyi Biotec, 130-113-668) was used. All activator constructs were fused to PYL1 at their C-terminus and were recruited to their targets by treating the cells with 1 μM abscisic acid for either 24 or 48 hours.

B1: SPDYE4-CITED1-P65-HSF1: multi-component effector of SPDYE4, CITED1, p65 and HSF1 activation domains (protein)
chain: MDPSPQPQSLGLKRKSEWSDESEEELEEELELERAPEPEDTWVVETLCGLKMKLKRKRASSGGSGGSESLSPSAGAQSPAIIDSDPVDEEVLMSLVVELGLDRANELPELWLGQNEFDFTADFPSSCGGSINSRSSGSPKKKRKVGSQYLPDTDDRHRIEEKRKRTYETFKSIMKKSPFSGPTDPRPPPRRIAVPSRSSASVPKPAPQPYPFTSSLSTINYDEFPTMVFPSGQISQASALAPAPPQVLPQAPAPAPAPAMVSALAQAPAPVPVLAPGPPQAVAPPAPKPTQAGEGTLSEALLQLQFDDEDLGALLGNSTDPAVFTDLASVDNSEFQQLLNQGIPVAPHTTEPMLMEYPEAITRLVTGAQRPPDPAPAPLGAPGLPNGLLSGDEDFSSIADMDFSALLGSGSGSGFSVDTSALLDLFSPSVTVPDMSLPDLDSSLASIQELLSPQEPPRPPEAENSSPDSGKQLVHYTAQPLFLLDPGSVDTGSNDLPVLFELGEGSYFSEGDGFAEDPTISLLTGSEPPKAKDPTVS
With B1 the “activity of effector constructs on TetO reporter” value [1] was “the most active constructs in the system”, the “transcriptional activation of EGFP reporter by TAD fusions” value [2] was “most robust activation” and the “activation of endogenous CD133 gene” value [3] was “most robust activation”.
